B1: cystatin F: N6162SN115Q (protein)
parent chain: MRAAGTLLAFCCLVLSTTGGPSPDTCSQDLNSRVKPGFPKTIKTNDPGVLQAARYSVEKFNNCTNDMFLFKESRITRALVQIVKGLKYMLEVEIGRTTCKKNQHLRLDDCDFQTNHTLKQTLSCYSEVWVVPWLQHFEVPVLRCH
B2: cystatin F: N6162S (protein)
parent chain: B1 parent chain

Tests used:
Details in all cases: glycan lost; control: wild type
[1] = non-reducing western blot of culture medium
[2] = conditioned medium, western blot of recipient cell lysates
[3] = non-reducing western blot of culture medium, HeLa/Hek293
[4] = immunofluorescence, endo/lysosomal (LAMP-1) vs Golgin-97 colocalisation
[5] = fluorogenic substrate assays, lysates of transfected or conditioned HeLa
[6] = non-reducing western blot of recipient cell lysates

Row | Protein | oligomerisation [1] | other: uptake by recipient cells [2] | expression_or_secretion [3] | localisation_or_trafficking [4] | other: inhibition of intracellular peptidases [5] | other: proteolytic processing (dimer to monomer conversion) [6]
1 | B1 | no change | decreases | no change | decreases | abolishes | abolishes
2 | B2 | no change | decreases | no change | decreases | decreases | decreases

— paper PMC5693851
